Reference: the supplement of paper PMC10065799, “High-throughput profiling of sequence recognition by tyrosine kinases and SH2 domains using bacterial peptide display” (eLife, 2023)

Legend:
[1] = tested on: AncSZ; assay: phosphorylation enrichment, bacterial display (enrichment ratio); higher = better substrate or ligand; peptides without Tyr show the background
[2] = target: EPHB1 (UniProt P54762); assay: as above
[3] = target: EPHB2 (UniProt P29323); assay: as above
[4] = target: FGFR1 (UniProt P11362); assay: as above
[5] = target: FGFR3 (UniProt P22607); assay: as above
[6] = tested on: Fer (mouse); assay: as above
[7] = target: Fes (UniProt P07332); assay: as above
[8] = target: Fyn (UniProt P06241); assay: as above
[9] = target: Hck (UniProt P08631); assay: as above
[10] = target: Jak2 (UniProt O60674); assay: as above
[11] = target: MERTK (UniProt Q12866); assay: as above
[12] = tested on: c-Abl (mouse); assay: as above
[13] = tested on: c-Src; assay: as above
[14] = target: Grb2 SH2 (UniProt P62993); assay: SH2 binding enrichment of the phosphorylated peptide, bacterial display (enrichment ratio); higher = better substrate or ligand; peptides without Tyr show the background
[15] = target: SHP2-C SH2; assay: as above
[16] = target: c-Src SH2; assay: as above
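Throughout, for SH2 binding enrichment of the phosphorylated peptide, bacterial display: peptide library displayed on the E. coli surface as eCPX fusions, selected cells deep-sequenced, score is each peptide's frequency after selection divided by its frequency in the input.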
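Throughout, for phosphorylation enrichment, bacterial display: 11-residue human phosphosite peptides and single-mutation variants displayed on the E. coli surface, counted by deep sequencing, each peptide's frequency after selection divided by its frequency in the unselected input library; frequency after pTyr selection over input frequency; kinase dosed for 20-30% of maximal phosphorylation in three min.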

Sequence of Fes (P07332 whole entry, looked up): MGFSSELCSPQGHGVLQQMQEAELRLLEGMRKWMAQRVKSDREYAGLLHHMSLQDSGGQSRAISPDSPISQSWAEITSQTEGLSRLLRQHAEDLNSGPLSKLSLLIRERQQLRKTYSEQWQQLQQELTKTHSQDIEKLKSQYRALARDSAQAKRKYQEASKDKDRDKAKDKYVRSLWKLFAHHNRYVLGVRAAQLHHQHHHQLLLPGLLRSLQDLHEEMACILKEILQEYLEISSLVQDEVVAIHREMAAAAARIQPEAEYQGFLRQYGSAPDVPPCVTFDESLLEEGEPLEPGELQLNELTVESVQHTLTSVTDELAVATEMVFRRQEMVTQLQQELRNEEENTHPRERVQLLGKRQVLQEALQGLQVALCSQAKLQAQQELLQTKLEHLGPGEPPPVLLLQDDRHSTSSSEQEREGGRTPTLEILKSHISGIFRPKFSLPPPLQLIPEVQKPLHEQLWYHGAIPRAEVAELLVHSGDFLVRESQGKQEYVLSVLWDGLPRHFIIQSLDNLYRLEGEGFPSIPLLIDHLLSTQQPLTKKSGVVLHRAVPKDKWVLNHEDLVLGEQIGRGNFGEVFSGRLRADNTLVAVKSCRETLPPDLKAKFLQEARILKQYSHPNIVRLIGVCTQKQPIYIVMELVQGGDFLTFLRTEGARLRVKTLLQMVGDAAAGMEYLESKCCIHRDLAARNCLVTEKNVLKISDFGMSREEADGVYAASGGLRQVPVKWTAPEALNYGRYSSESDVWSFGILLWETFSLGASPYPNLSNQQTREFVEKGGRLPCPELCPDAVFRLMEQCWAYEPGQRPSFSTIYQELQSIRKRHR
Sequence of Fyn (P06241 whole entry, looked up): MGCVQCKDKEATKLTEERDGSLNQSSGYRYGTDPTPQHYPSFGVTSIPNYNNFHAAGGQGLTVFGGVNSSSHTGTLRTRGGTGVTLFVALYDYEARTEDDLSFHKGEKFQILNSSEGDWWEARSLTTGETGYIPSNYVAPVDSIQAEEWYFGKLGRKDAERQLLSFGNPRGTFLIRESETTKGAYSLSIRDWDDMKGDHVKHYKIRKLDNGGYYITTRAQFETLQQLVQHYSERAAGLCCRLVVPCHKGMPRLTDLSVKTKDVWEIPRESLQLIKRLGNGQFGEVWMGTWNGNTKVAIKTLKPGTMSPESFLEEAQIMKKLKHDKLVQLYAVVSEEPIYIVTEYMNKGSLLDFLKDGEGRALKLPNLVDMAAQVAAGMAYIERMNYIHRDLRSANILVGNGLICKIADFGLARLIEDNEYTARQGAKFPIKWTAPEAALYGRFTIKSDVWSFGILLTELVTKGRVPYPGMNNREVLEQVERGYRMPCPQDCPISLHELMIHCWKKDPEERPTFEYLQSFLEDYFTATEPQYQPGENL
Sequence of FGFR1 (P11362 whole entry, looked up): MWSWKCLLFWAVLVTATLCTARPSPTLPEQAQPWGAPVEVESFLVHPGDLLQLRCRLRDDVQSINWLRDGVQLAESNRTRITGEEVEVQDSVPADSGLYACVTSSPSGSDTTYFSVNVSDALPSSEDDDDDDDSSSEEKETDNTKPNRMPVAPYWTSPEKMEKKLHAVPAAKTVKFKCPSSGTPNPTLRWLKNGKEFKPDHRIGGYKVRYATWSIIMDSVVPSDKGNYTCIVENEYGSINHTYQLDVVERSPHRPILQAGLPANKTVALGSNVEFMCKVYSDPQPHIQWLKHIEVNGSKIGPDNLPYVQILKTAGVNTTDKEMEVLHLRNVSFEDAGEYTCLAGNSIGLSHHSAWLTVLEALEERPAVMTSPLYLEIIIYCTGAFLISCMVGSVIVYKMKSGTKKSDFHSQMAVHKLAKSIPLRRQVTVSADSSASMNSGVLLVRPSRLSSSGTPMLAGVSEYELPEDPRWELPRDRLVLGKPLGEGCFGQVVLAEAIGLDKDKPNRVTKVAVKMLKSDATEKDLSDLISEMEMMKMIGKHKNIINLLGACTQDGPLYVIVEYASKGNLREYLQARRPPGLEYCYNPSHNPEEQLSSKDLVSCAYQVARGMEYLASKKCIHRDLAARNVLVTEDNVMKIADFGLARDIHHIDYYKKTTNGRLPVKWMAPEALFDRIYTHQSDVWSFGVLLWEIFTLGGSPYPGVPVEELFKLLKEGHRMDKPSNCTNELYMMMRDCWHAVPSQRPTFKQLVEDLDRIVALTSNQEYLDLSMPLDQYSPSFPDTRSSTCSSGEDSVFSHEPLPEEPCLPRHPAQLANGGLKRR
Sequence of EPHB2 (P29323 whole entry, looked up): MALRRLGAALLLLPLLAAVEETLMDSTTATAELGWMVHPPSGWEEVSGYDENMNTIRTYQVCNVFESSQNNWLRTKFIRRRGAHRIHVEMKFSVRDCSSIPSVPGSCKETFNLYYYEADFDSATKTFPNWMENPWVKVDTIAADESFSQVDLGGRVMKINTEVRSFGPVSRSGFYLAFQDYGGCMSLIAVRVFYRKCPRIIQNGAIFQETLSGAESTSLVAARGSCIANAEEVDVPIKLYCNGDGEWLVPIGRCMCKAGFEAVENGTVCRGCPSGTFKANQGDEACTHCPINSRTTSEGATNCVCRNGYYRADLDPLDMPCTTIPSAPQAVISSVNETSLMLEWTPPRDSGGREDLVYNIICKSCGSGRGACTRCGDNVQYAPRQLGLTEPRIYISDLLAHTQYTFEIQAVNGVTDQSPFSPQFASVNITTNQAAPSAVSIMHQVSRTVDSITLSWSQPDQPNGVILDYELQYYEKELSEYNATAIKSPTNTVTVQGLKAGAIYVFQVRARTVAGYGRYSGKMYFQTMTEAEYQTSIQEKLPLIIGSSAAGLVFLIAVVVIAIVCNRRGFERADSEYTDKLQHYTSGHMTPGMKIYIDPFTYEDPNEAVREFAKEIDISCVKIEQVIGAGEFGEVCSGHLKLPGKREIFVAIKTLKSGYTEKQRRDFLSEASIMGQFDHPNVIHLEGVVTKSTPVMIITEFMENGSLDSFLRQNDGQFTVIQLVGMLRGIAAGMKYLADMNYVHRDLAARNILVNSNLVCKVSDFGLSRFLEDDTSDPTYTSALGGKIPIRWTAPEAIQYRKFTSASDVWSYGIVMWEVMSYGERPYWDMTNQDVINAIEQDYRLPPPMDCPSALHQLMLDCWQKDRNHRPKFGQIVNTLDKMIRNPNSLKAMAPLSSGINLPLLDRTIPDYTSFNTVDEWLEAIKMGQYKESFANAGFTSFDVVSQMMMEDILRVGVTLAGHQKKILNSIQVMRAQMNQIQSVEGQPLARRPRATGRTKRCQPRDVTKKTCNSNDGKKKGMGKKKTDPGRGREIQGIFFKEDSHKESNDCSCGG
Sequence of MERTK (Q12866 whole entry, looked up): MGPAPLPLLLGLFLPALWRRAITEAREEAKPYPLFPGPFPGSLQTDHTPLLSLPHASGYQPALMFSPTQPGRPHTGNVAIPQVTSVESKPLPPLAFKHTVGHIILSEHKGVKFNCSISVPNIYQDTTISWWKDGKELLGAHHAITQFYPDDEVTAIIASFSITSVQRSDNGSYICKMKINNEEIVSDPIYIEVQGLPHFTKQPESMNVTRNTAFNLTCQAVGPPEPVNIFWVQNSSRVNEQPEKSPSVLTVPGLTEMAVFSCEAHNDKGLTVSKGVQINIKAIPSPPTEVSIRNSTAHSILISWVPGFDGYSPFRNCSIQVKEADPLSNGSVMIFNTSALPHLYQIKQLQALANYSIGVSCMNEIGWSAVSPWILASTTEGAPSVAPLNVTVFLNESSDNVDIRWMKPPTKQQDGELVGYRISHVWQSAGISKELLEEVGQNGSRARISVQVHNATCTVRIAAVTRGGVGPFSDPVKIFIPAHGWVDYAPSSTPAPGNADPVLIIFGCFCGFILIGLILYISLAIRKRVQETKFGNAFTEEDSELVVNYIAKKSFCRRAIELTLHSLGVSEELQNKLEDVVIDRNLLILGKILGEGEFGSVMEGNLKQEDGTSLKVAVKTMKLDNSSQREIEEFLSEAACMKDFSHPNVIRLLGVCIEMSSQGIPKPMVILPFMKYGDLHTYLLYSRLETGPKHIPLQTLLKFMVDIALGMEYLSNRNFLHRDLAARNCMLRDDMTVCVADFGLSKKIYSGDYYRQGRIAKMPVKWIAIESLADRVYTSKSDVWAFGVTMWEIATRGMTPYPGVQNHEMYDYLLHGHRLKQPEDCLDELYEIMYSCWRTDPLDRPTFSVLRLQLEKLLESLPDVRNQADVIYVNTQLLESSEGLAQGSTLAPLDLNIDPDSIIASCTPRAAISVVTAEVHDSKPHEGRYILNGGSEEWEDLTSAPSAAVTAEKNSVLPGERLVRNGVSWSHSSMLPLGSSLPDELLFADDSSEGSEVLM
Sequence of Grb2 SH2 (P62993 whole entry, looked up): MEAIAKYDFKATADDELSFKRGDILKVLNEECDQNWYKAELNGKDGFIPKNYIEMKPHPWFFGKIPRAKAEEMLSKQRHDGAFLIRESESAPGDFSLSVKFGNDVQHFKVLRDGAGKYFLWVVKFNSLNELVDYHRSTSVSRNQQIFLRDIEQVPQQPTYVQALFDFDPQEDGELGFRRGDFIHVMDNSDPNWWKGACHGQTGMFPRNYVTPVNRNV
Sequence of Hck (P08631 whole entry, looked up): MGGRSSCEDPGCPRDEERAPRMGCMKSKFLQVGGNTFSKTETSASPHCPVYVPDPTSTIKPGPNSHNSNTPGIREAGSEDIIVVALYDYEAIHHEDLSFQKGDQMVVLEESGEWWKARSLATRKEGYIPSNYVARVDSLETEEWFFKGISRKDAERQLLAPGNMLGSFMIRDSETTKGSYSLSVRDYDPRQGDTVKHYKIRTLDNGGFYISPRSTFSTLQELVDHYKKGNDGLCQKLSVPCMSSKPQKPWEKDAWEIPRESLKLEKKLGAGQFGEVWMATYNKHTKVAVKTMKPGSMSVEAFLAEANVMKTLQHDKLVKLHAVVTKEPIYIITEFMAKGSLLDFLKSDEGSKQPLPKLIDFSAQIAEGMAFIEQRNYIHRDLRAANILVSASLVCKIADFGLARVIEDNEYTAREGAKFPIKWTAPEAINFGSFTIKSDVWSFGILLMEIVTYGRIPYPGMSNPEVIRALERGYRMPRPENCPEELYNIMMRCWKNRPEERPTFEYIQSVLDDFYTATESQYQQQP

| Sequence | phosphorylation enrichment [1] | phosphorylation enrichment [2] | phosphorylation enrichment [3] | phosphorylation enrichment [4] | phosphorylation enrichment [5] | phosphorylation enrichment [6] | phosphorylation enrichment [7] | phosphorylation enrichment [8] | phosphorylation enrichment [9] | phosphorylation enrichment [10] | phosphorylation enrichment [11] | phosphorylation enrichment [12] | phosphorylation enrichment [13] | SH2 binding enrichment [14] | SH2 binding enrichment [15] | SH2 binding enrichment [16] |
| --- | --- | --- | --- | --- | --- | --- | --- | --- | --- | --- | --- | --- | --- | --- | --- | --- |
| IEDPFYGNDSD [ACP1_Y133_YF] | 1.51 | 0.782 | 0.65 | 0.643 | 0.966 | 0.755 | 1.55 | 0.556 | 0.628 | 2.17 | 0.487 | 1.1 | 0.75 | 0.942 | 0.855 | 0.529 |
| ADKAAYLQSLN [MYH2_Y389] | 0.779 | 0.458 | 0.561 | 0.506 | 0.572 | 0.539 | 0.789 | 0.536 | 0.516 | 0.777 | 0.476 | 0.546 | 0.45 | 0.86 | 0.8 | 0.553 |
| EEGNPSYSSAR [MCCC2_Y520_Y520S] | 0.962 | 0.514 | 0.539 | 0.529 | 0.554 | 0.513 | 1 | 0.497 | 0.585 | 0.776 | 0.501 | 1.25 | 0.542 | 0.825 | 0.647 | 0.517 |
| VVQGIYGFHHH [UFSP2_Y285_Y290H_YF] | 0.685 | 0.65 | 1.19 | 0.523 | 0.496 | 11.7 | 0.776 | 11.7 | 10.8 | 0.538 | 9.65 | 2.36 | 9.09 | 1.06 | 0.757 | 0.588 |
| FEGAIYRKDVG [GART_Y417] | 0.645 | 0.332 | 0.312 | 0.347 | 0.539 | 0.662 | 0.707 | 0.405 | 0.514 | 0.467 | 0.288 | 0.457 | 0.393 | 0.664 | 0.582 | 0.451 |
| LIHLHYIRRDF [BBS4_Y43_K46R_YF] | 1.1 | 0.669 | 0.707 | 0.521 | 0.732 | 0.564 | 1.02 | 0.503 | 0.581 | 0.972 | 0.419 | 0.333 | 0.448 | 1.28 | 0.817 | 0.854 |
| MNKNAYHNVTA [ST3GAL6_Y306] | 0.524 | 0.686 | 0.341 | 0.499 | 0.451 | 0.379 | 0.52 | 0.519 | 0.46 | 0.443 | 0.404 | 0.465 | 0.331 | 3.88 | 0.51 | 2.14 |
| TRSCKYLLLSM [NF1_Y491_Y489C] | 0.823 | 0.521 | 0.621 | 0.53 | 0.552 | 0.416 | 0.954 | 0.441 | 0.549 | 0.864 | 0.512 | 0.614 | 0.39 | 1.41 | 1.58 | 1.04 |
| GVKLTYGDAQN [SLC28A1_Y404] | 0.726 | 0.379 | 0.45 | 0.53 | 0.473 | 0.397 | 0.872 | 0.479 | 0.369 | 1.63 | 0.397 | 0.813 | 0.499 | 0.969 | 0.54 | 0.472 |
| RSPLRYTSILT [OR51B6_Y130] | 0.679 | 0.426 | 0.532 | 0.536 | 0.431 | 0.492 | 0.843 | 0.64 | 0.443 | 0.655 | 0.392 | 0.632 | 0.392 | 1.67 | 3.94 | 2.87 |
| RGRSTYFWPRP [GAGE12J_Y9_YF] | 1.15 | 0.875 | 0.652 | 0.93 | 1.06 | 1.11 | 1.02 | 0.641 | 0.636 | 0.838 | 1.3 | 1.17 | 0.999 | 0.456 | 0.704 | 0.489 |
| YCRHNYGVGES [HLA-DRB1_Y112_V115G] | 0.686 | 0.492 | 0.473 | 0.549 | 0.534 | 0.361 | 0.913 | 0.487 | 0.383 | 0.65 | 0.582 | 0.602 | 0.552 | 0.936 | 0.838 | 0.823 |
| KVMANYMFKAG [MAML2_Y513_YF] | 0.638 | 0.448 | 0.744 | 0.412 | 0.418 | 0.394 | 0.675 | 0.344 | 0.342 | 0.519 | 0.432 | 0.556 | 0.414 | 0.934 | 0.697 | 0.651 |
| GRTNIYKNKKD [SLC26A3_Y520] | 0.467 | 0.415 | 0.393 | 0.369 | 0.475 | 0.349 | 0.648 | 0.308 | 0.447 | 0.66 | 0.43 | 0.721 | 0.434 | 1.07 | 0.832 | 0.802 |
| RRIHSNRGHLW [VHL_Y112_Y112N] | 0.702 | 0.496 | 0.48 | 0.357 | 0.408 | 0.485 | 0.732 | 0.574 | 0.709 | 0.653 | 0.677 | 0.825 | 0.625 | 0.923 | 0.568 | 0.484 |
| CFTRKYTLPPG [HSPB1_Y142] | 0.763 | 0.546 | 0.459 | 0.495 | 0.604 | 0.459 | 1.06 | 0.443 | 0.457 | 0.787 | 0.42 | 0.678 | 0.452 | 0.683 | 0.601 | 0.477 |
| YSKTQYNQVPS [CXADR_Y318] | 0.473 | 0.351 | 0.318 | 0.393 | 0.429 | 0.386 | 0.522 | 0.461 | 0.343 | 0.502 | 0.467 | 0.729 | 0.387 | 0.748 | 0.714 | 0.767 |

| Sequence | phosphorylation enrichment [1] | phosphorylation enrichment [2] | phosphorylation enrichment [3] | phosphorylation enrichment [4] | phosphorylation enrichment [5] | phosphorylation enrichment [6] | phosphorylation enrichment [7] | phosphorylation enrichment [8] | phosphorylation enrichment [9] | phosphorylation enrichment [10] | phosphorylation enrichment [11] | phosphorylation enrichment [12] | phosphorylation enrichment [13] | SH2 binding enrichment [14] | SH2 binding enrichment [15] | SH2 binding enrichment [16] |
| --- | --- | --- | --- | --- | --- | --- | --- | --- | --- | --- | --- | --- | --- | --- | --- | --- |
| QTEAPYRFIYM [PTPN11_Y511_Q510P] | 1.41 | 0.93 | 1.25 | 7.24 | 5.25 | 11 | 1.6 | 0.697 | 0.984 | 1.22 | 1.4 | 1.15 | 1.93 | 0.84 | 0.783 | 0.469 |
| VNKIYYPDFIV [LIG3_Y768] | 1.23 | 0.621 | 0.516 | 8.82 | 7.46 | 0.494 | 0.918 | 1.09 | 1.25 | 0.666 | 2.72 | 0.596 | 1.48 | 1.07 | 0.697 | 0.675 |
| AGDGRYEVLFL [SEMA3F_Y478_A474G] | 0.94 | 0.658 | 0.667 | 0.533 | 0.786 | 4.36 | 1.02 | 0.455 | 0.772 | 0.927 | 1.08 | 0.758 | 0.545 | 0.692 | 0.573 | 7.93 |
| AACQHYGVHTC [NR4A2_Y275_R278H] | 0.624 | 0.445 | 0.471 | 0.413 | 0.585 | 0.347 | 0.63 | 0.433 | 0.443 | 0.432 | 0.406 | 0.534 | 0.345 | 0.903 | 0.946 | 0.584 |
| ETDTRYFDEEF [AKT1_Y437] | 1.32 | 0.633 | 0.714 | 0.567 | 0.81 | 0.563 | 1.29 | 0.544 | 0.665 | 1.37 | 0.527 | 0.875 | 0.679 | 0.902 | 0.916 | 0.775 |
| MFKPMYALFRT [HUWE1_Y4078_N4075K] | 0.921 | 0.963 | 0.621 | 0.606 | 0.698 | 0.815 | 0.982 | 0.779 | 0.872 | 0.704 | 2.87 | 1.85 | 1.75 | 1.35 | 1.86 | 1.52 |
| LISVSYDDWDF [GRIN2A_Y281_YF] | 3.36 | 1.46 | 1 | 1.08 | 1.09 | 19.4 | 2.44 | 0.953 | 0.893 | 2.06 | 1.03 | 1.64 | 1.07 | 1.12 | 0.797 | 1.36 |
| FPCSVYMPDEW [INSR_Y1011_V1012M] | 1.19 | 0.6 | 0.644 | 0.658 | 0.712 | 0.512 | 1.06 | 0.875 | 0.596 | 1.1 | 0.559 | 0.687 | 3.15 | 1 | 0.956 | 0.989 |
| RSSKMYFKTRS [LPL_Y329_L330F] | 1.2 | 0.685 | 0.567 | 0.701 | 0.561 | 0.764 | 1.22 | 0.667 | 0.634 | 0.989 | 0.712 | 1.07 | 0.856 | 0.884 | 0.747 | 0.459 |
| YGSGNYNDFGN [HNRNPA2B1_Y300] | 1.03 | 3 | 1.01 | 0.719 | 0.654 | 0.424 | 1.08 | 0.668 | 0.632 | 0.966 | 0.501 | 0.923 | 0.643 | 0.94 | 0.629 | 0.68 |
| NPQKSYFIRLF [WAS_Y83_YF] | 1.09 | 0.58 | 0.501 | 0.579 | 0.754 | 0.583 | 1.4 | 0.453 | 0.5 | 1.21 | 0.457 | 0.692 | 0.464 | 1.2 | 0.945 | 0.701 |
| YISLIYTNYEV [GSTP1_Y109_A114V] | 1.82 | 2 | 1.83 | 4.89 | 4.26 | 5.32 | 1.55 | 4.07 | 2.59 | 1.54 | 3.93 | 2.16 | 4.53 | 1.18 | 1.5 | 1.16 |
| NTQRPYYKGGG [TYROBP_Y111] | 0.516 | 0.331 | 0.383 | 0.511 | 0.421 | 0.411 | 0.592 | 0.305 | 0.431 | 0.601 | 0.415 | 0.427 | 0.432 | 1.21 | 1.39 | 0.736 |
| MPAVTYTLAMR [MEGF10_Y895_P897L] | 1.08 | 0.516 | 0.588 | 0.453 | 0.73 | 0.488 | 1.03 | 0.53 | 0.514 | 0.845 | 0.437 | 0.724 | 0.503 | 0.758 | 3.33 | 0.726 |
| EKLQQYIAPGM [EPHB3_Y600] | 0.589 | 0.401 | 0.35 | 0.389 | 0.506 | 0.435 | 0.759 | 0.334 | 0.363 | 0.927 | 0.328 | 0.582 | 0.412 | 0.696 | 0.734 | 0.47 |
| DFDNLYYWDQD [ERBB2_Y1221_A1216D] | 2.68 | 4.08 | 3.3 | 9.53 | 9.13 | 3.8 | 1.96 | 6.81 | 5.31 | 1.86 | 7.57 | 0.973 | 6.09 | 0.808 | 0.462 | 0.453 |
